Experimental data from PMC11372007, “Characterization of a GDS(L)-like hydrolase from Pleurotus sapidus with an unusual SGNH motif” (AMB Express, 2024).

Columns and labels:
[1] = substrate: CCCC(=O)Oc1ccc([N+](=O)[O-])cc1; test: purified protein; type: biochemical, Pleurotus sapidus; details: apparent constant, esterase assay: potassium phosphate pH 7.0, 0.5% v/v Triton X-100, 30 °C
[2] = substrate: CCCCCCCC(=O)Oc1ccc([N+](=O)[O-])cc1; test: purified protein; type: biochemical, Pleurotus sapidus; details: apparent constant, esterase assay: potassium phosphate pH 7.0, 0.5% v/v Triton X-100, 30 °C

B1: PSA_Lip (Pleurotus sapidus) (protein)
chain: AVLPRDAPNGVHLAVDPKCGVAGGRFGDVNIGLKPLTSYEHIVAFGDSWTDGGAHNGEPLPPPVLTPPNPRAGGRASNGPVWVEKLASAAGATLLDFAEIGAVTDKNIWPSSLLPTTASSANDFVGQAHNYINQRNGFDPETTLYTIFLGVGDFDLSQQTGTDNLYTVAGAIVYTILELTSYPTYAKNIIVVDNYGRGIYETPSGDAFKEGIYAGLNTLHTRYGTSVGFVDLKTLWDGVLGSSPGYEAFGYTSKAACLPSSTSTSGACANPESTFYWLPGIPSAATHGLIADYVEKVLTTC
notes: no tag told; semi-native gel band ~118 kDa
Km [1]: 1220 µM
Vmax [1]: 109 µM/min
kcat [1]: 1.95 s⁻¹
kcat/Km [1]: 1610 M⁻¹ s⁻¹
Km [2]: 330 µM
Vmax [2]: 122 µM/min
kcat [2]: 2.19 s⁻¹
kcat/Km [2]: 6560 M⁻¹ s⁻¹
